Assays:
[1] = target: membrane-bound human FcγRIIB on Raji cells (human) (UniProt P31994); assay: FACS on Raji cells (FACS007), constant aggregated IgG; competitor SM101 0.5 µg/µL
[2] = target: membrane-bound human FcγRIIB on Raji cells (human) (UniProt P31994); assay: FACS on Raji cells (FACS021), constant aggregated IgG; no competitor (IMP series)
[3] = target: membrane-bound human FcγRIIB on Raji cells (human) (UniProt P31994); assay: FACS on Raji cells (FACS007), constant aggregated IgG; competitor SM101 0.25 µg/µL
[4] = target: membrane-bound human FcγRIIB on Raji cells (human) (UniProt P31994); assay: FACS on Raji cells (FACS007), constant aggregated IgG; competitor SM101 0.0078 µg/µL
[5] = target: membrane-bound human FcγRIIB on Raji cells (human) (UniProt P31994); assay: FACS on Raji cells (FACS007), constant aggregated IgG; competitor SM101 0.0625 µg/µL
[6] = target: membrane-bound human FcγRIIB on Raji cells (human) (UniProt P31994); assay: FACS on Raji cells (FACS007), constant aggregated IgG; competitor SM101 0.03125 µg/µL
[7] = target: membrane-bound human FcγRIIB on Raji cells (human) (UniProt P31994); assay: FACS on Raji cells (FACS021), constant aggregated IgG; competitor SM101 IMP 0.5 µg/µL
[8] = target: membrane-bound human FcγRIIB on Raji cells (human) (UniProt P31994); assay: FACS on Raji cells (FACS007), constant aggregated IgG, anti-human IgG-PE; no competitor
[9] = target: membrane-bound human FcγRIIB on Raji cells (human) (UniProt P31994); assay: FACS on Raji cells (FACS021), constant aggregated IgG; no competitor (Ref. Std. series)
[10] = target: membrane-bound human FcγRIIB on Raji cells (human) (UniProt P31994); assay: FACS on Raji cells (FACS021), constant aggregated IgG; competitor SM101 IMP 0.0156 µg/µL
[11] = target: membrane-bound human FcγRIIB on Raji cells (human) (UniProt P31994); assay: FACS on Raji cells (FACS021), constant aggregated IgG; competitor SM101 IMP 0.03125 µg/µL
[12] = target: membrane-bound human FcγRIIB on Raji cells (human) (UniProt P31994); assay: FACS on Raji cells (FACS021), constant aggregated IgG; competitor SM101 Ref. Std. 0.5 µg/µL
[13] = target: membrane-bound human FcγRIIB on Raji cells (human) (UniProt P31994); assay: FACS on Raji cells, aggregated Beriglobin at 2.5 (µg/µL); mean of three batches
[14] = target: membrane-bound human FcγRIIB on Raji cells (human) (UniProt P31994); assay: FACS on Raji cells, aggregated Beriglobin at 5.0 (µg/µL); mean of three batches
[15] = target: membrane-bound human FcγRIIB on Raji cells (human) (UniProt P31994); assay: FACS on Raji cells (FACS021), constant aggregated IgG; competitor SM101 Ref. Std. 0.0078 µg/µL
[16] = target: membrane-bound human FcγRIIB on Raji cells (human) (UniProt P31994); assay: FACS on Raji cells (FACS021), constant aggregated IgG; competitor SM101 Ref. Std. 0.0625 µg/µL
[17] = target: membrane-bound human FcγRIIB on Raji cells (human) (UniProt P31994); assay: FACS on Raji cells (FACS021), constant aggregated IgG; competitor SM101 Ref. Std. 0.03125 µg/µL
[18] = target: membrane-bound human FcγRIIB on Raji cells (human) (UniProt P31994); assay: FACS: 0.1E6 Raji cells (FcγRIIB) with 2.5 µg aggregated Beriglobin at the stated pH; 1/200 anti-human IgG(H+L)-PE; secondary antibody alone in this panel 173; pH 6.5
[19] = target: membrane-bound human FcγRIIB on Raji cells (human) (UniProt P31994); assay: FACS: 0.1E6 Raji cells (FcγRIIB) with 2.5 µg aggregated Beriglobin at the stated pH; 1/200 anti-human IgG(H+L)-PE; secondary antibody alone in this panel 173; pH 6.7
[20] = target: membrane-bound human FcγRIIB on Raji cells (human) (UniProt P31994); assay: FACS: 0.1E6 Raji cells (FcγRIIB) with 2.5 µg aggregated Beriglobin at the stated pH; 1/200 anti-human IgG(H+L)-PE; drawn table, secondary antibody control not subtracted
[21] = target: membrane-bound human FcγRIIB on Raji cells (human) (UniProt P31994); assay: FACS on Raji cells (FcγRIIB) with constant aggregated Beriglobin and no CSA; detected with anti-human IgG(H+L)-PE; secondary antibody alone (SM101_sek AK.fcs) has median 137
[22] = target: membrane-bound human FcγRIIB on Raji cells (human) (UniProt P31994); assay: FACS: 0.1E6 Raji cells (FcγRIIB) with 2.5 µg aggregated Beriglobin at the stated pH; 1/200 anti-human IgG(H+L)-PE; secondary antibody alone in this panel 142
[23] = target: membrane-bound human FcγRIIB on Raji cells (human) (UniProt P31994); assay: FACS: 0.1E6 Raji cells (FcγRIIB) with 2.5 µg aggregated Beriglobin at the stated pH; 1/200 anti-human IgG(H+L)-PE; drawn table, secondary antibody control not subtracted; pH 6.5
[24] = target: membrane-bound human FcγRIIB on Raji cells (human) (UniProt P31994); assay: FACS: 0.1E6 Raji cells (FcγRIIB) with 2.5 µg aggregated Beriglobin at the stated pH; 1/200 anti-human IgG(H+L)-PE; drawn table, secondary antibody control not subtracted; pH 7.2

UniProt P31994, sequence (P31994 43-310): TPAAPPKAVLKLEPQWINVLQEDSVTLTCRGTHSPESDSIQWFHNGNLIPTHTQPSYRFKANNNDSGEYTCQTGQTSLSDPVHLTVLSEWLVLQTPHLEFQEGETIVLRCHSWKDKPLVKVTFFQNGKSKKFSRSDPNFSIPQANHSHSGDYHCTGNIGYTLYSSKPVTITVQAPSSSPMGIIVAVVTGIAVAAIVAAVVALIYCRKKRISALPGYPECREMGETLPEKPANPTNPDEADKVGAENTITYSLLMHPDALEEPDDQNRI

Median Signal [1]: 238
Median Signal [2]: 6930
Median Signal [3]: 197
Median Signal [4]: 3010
Median Signal [5]: 466
Median Signal [6]: 1240
Median Signal [7]: 195
Median Signal [8]: 3880
Median Signal [9]: 6460
Median Signal [10]: 3810
Median Signal [11]: 1780
Median Signal [12]: 182
Median MFI (mean) [13]: 1280
Median MFI (mean) [14]: 1110
Median Signal [15]: 5230
Median Signal [16]: 921
Median Signal [17]: 1640
Median MFI at pH 6.5 (left panel) [18]: 703
Median MFI at pH 6.7 (left panel) [19]: 578
Median MFI at pH 7 [20]: 599
Median MFI at pH 7.8 [20]: 363
Median MFI at pH 8 [20]: 348
Median MFI at pH 8.5 [20]: 246
Median MFI at pH 9 [20]: 244
Median MFI at pH 10 [20]: 177
Median PE-A fluorescence, 0 µg/µL CSA [21]: 3480
Median MFI at pH 7.0 (right panel) [22]: 866
Median MFI at pH 8.0 (right panel) [22]: 316
Median MFI at pH 8.5 (right panel) [22]: 246
Median MFI at pH 9.0 (right panel) [22]: 244
Median MFI at pH 10 (right panel) [22]: 177
Median MFI at pH 6.5 [23]: 703
Median MFI at pH 7.2 [24]: 561
Substance: aggregated human IgG (aggregated Beriglobin, aggregated fraction isolated by size exclusion chromatography) (antibody)

Reference: patent publication US20160195541A1
